Assay results reported in article doi:10.1101/2025.03.18.643923, “Widely used CaMKII regulatory segment mutations cause tight actinin binding and dendritic spine enlargement in unstimulated neurons” (bioRxiv, 2025).

Target: T1, Human α-actinin-2 EF3-4 (positions 827-894) (human, UniProt P35609 827-894)
T1 construct: α-actinin-2, human, third and fourth EF hands, positions 827-894; also called α-actinin-2 EF hands 3-4; source: E. coli Rosetta pLysS, purified (Ni-NTA, Glutathione Sepharose, Tev cleavage, Superdex 75); not shown: His, N-terminal, cleaved; GST, N-terminal, cleaved
T1 sequence (P35609 827-894): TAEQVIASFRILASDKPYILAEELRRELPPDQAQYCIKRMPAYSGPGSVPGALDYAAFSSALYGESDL
Test: ITC; MicroCal PEAQ, 25 °C, 25 mM HEPES pH 7.5, 150 mM NaCl; syringe 500 μM CaMKIIα peptide, cell 50 μM EF3-4; single site binding model
Conditions: both partners purified

| Kd [µM] | Binder |
| --- | --- |
| 14.7 ± 1.2 | NARRKLKGAILAAMLATRNFSG (peptide, UniProt P11275 294-315, looked up, Probably a synthetic peptide; also called AA isolated regulatory segment) [CaMKIIα 294-315 peptide T305A/T306A] |
| 19.8 ± 1.9 | NARRKLKGAILTAMLATRNFSG (peptide, UniProt P11275 294-315, looked up, Probably a synthetic peptide; also called T306A regulatory segment) [CaMKIIα 294-315 peptide T306A] |
| 19.4 ± 0.7 | NARRKLKGAILATMLATRNFSG (peptide, UniProt P11275 294-315, looked up, Probably a synthetic peptide; also called T305A regulatory segment) [CaMKIIα 294-315 peptide T305A] |
| 3.46 ± 0.08 | LKKFNARRKLKGAILTTMLA (peptide, UniProt P11275 290-309, looked up, CaMKIIα regulatory segment, residues 290-309; Probably a synthetic peptide; also called WT CaMKIIα 290-309; N-terminally shifted regulatory segment peptide (WT)) [CaMKIIα 290-309 peptide WT] |
| 0.146 ± 0.012 | LKKFNARRKLKGAILAAMLA (peptide, UniProt P11275 290-309, looked up, CaMKIIα regulatory segment, residues 290-309; Probably a synthetic peptide; also called AA CaMKIIα 290-309; N-terminally shifted regulatory segment peptide (AA)) [CaMKIIα 290-309 peptide AA (T305A/T306A)] |
